Publication PMC12102759

B1: NCOA2 peptide 1073-1088 (Nuclear receptor coactivator 2), 16-mer library wild type / NSP3 UBl1 (ORF1ab Nsp3a Ub1, residues 819-925) (parent)
chain 1: PSDEGALLDQLYLALR
chain 2: APTKVTFGDDTVIEVQGYKSVNITFELDERIDKVLNEKCSAYTVELGTEVNEFACVVADAVIKTLQPVSELLTPLGIDLDEWSMATYYLFDESGEFKLASHMYCSFY
B2: KIAA1671 peptide 600-615 (Uncharacterized protein KIAA1671), 16-mer library wild type / MDM2 SWIB (MDM2 SWIB/MDM2 domain, residues 17-125) (parent)
chain 1: TPEDDRSFQTVWATVF
chain 2: SQIPASEQETLVRPKPLLLKLLKSVGAQKDTYTMKEVLFYLGQYIMTKRLYDEKQQHIVYCSNDLLGDLFGVPSFSVKEHRKIYTMIYRNLVVVNQQESSDSGTSVSEN

Variants of: B1
Assay: not given
Conditions: with NSP3 UBl1 (ORF1ab Nsp3a Ub1, residues 819-925); bait immobilised on MaxiSorp plates (10 µg), library pre-cleared on GST, 2 h binding at 4 °C, five washes; one round per day, days 1-4; value from days 2 and 3; keep out of graded; scale: average fractional NGS count over selection days 2 and 3

Screen value, by site and new letter:
chain 1 R16: T 0.000892 | M 7.36e-05 | Q 0.00132 | I 1.03e-05 | F 0.000746 | H 0.000164 | S 4.51e-05 | Y 0.0506
chain 1 D3: E 7.04e-06 | N 1.14e-05
chain 1 L13: S 0 | E 0
chain 1 G5: T 0 | I 4.53e-05 | A 5.46e-06 | S 1.04e-05 | N 0
chain 1 A14: R 6.24e-06 | D 0 | Q 0 | Y 0 | I 0
chain 1 S2: I 0 | H 1.09e-05 | E 0 | L 1.56e-05 | M 8.73e-06 | G 1.09e-05 | F 4.76e-06 | Q 0.000342 | V 8.33e-06 | A 1.93e-05

Variants of: B2
Assay: proteomic peptide phage display deep mutational scan (ProP-PD DMS): M13 P8 16-mer library selected against immobilised GST-tagged bait for four days (rounds), NGS of the eluted pools per day and pseudo-replica
Conditions: with MDM2 SWIB (MDM2 SWIB/MDM2 domain, residues 17-125); bait immobilised on MaxiSorp plates (10 µg), library pre-cleared on GST, 2 h binding at 4 °C, five washes; one round per day, days 1-4; value from days 2 and 3; keep out of graded; scale: average fractional NGS count over selection days 2 and 3

Screen value, by site and new letter:
chain 1 P2: E 6.83e-05 | H 4.89e-05 | S 7.3e-05 | L 6.52e-05 | I 0.000159 | M 0.000288 | V 3.63e-05 | R 3.9e-05 | Q 9.58e-05 | G 0.000243 | Y 0.000913 | T 0.000455 | D 6.18e-05 | A 8.35e-05
chain 1 E3: I 0.000166 | V 0.00284 | N 4.32e-05 | T 0.000371 | Q 4.56e-05 | R 0.000648 | H 0.000765 | S 0.00105 | P 5.24e-05 | A 0.00018 | L 0.000185 | G 0.000104 | Y 0.00068 | F 1.83e-05
chain 1 V15: A 0.000191 | N 0 | P 0 | S 2.82e-05 | G 0 | W 0.000109
chain 1 D4: S 0.0004 | A 0.00011 | Q 0.000505 | Y 2.12e-05 | N 1.9e-05 | I 8.68e-05 | M 4.28e-05 | G 0.000914 | V 0.000129 | T 0.00033 | P 0.000107
chain 1 R6: W 0.0002 | Q 0.000155 | A 0.000223 | G 9.01e-05 | I 0.000114 | S 0.00021 | H 0.000397
